Assay results from a protein production outcome set (Wang et al. 2014).

Assay: label from the status in PepcDB records

Sequence | protein production
MKTTLIISTYNRPEALSVCLDSVRFQTVMPDEVIVGDDGSTSETKDLIESFKKDFPVPLIHLWQEDKGFRLAMMRNKSVAAATGDYIIEIDGDIFLHNKFVEDHKRLAKPGHYLRGTRVNLGQKLTEEICKSKVNRRIYPWTIGIQNRAETAIHSTPVSNFFADRYKKNVSSGLGCNMSFWRSDFLAINGYDEFFEGWGKEDDDLTHRLQRKGCKKRSLRFAGIVYHLWHGHESMESDQKNAEYFRKNNEKNIVYCENGVSKYLKQELEHHHHHH | not failed
MLRSLDIRDMLIIDRLSLAFQPGLNVLTGETGAGKSILLDSLGFVLGWRGRAELVRAGADKGEVTAVFDLPPGHAARAVLDEAGIEAEDELILRRVNFADGRKTAWVNDRRVSGEVLRGLSDRLVELHGQHDDRGLLNPRGHRQMLDTFAGLDLSACRRAWTALGTARRTLLAAEEALAAVRAEEDFLRHAVAELDKLDPQPGEEALLDTRRREMQGAEKIRDDIARAHRALSAEGAETLLVD | failed
MNSDGSDNFELVKKSYGRNFSGISGCAWSPDGSRIAYISSDHNGSDRLVTLNPDGSNEQIVASFAEISALAWAPDSSGMAFNAAYSEDGQTGIYLADLESSEPVFLVRGEIRQQIQSWQSEVWSPDGSRILYSSNENGNSDTNENGNSDIYSVNTDGSEKIQLTDDNSKDYSPCFSPDGSKIIFISDRTGHSSIWIMSSNGDKEEELTEGFEGIHDFSWNPNGQKIAFSSDSNSYIQEIDYSESGDEDSQDDSSSDDSDNDTEVNPEYLHMEILSPDLNFAASQGTPELITVRITNNSGSPVQSSGFKFIKANFSNGDPELQLFDDGTHEDITASDGIFSNQWIPVNTTGLPLTLCILWASADHESLGDAEQIISGTISRKPIPSDLVIENISWSPADPYVNDNITFSITSANRGSGPSEACKVKCYINGNEAYSYSLPELEARSSTSIIFSWIPTAPGNIDVKAVVDEENQVSESVEENNEKSVSFSVKSLTPSTSSGKSGGKSSSSGGGGGGGGSPEPASNVRIKELSQQYITSGKYAKFAFPRNATCVTHVAFNSRRTAGKTTTIVEMLKNKSTRVPDLPAGKIYENVNIWVGNKGTADPENIENAVVGFRVEKSWITLNDVDPASVRLWRLSSGEWEELSIRQSGEDDRYSYFEAQTEGFSHFVITAPSGENETIENALKSSIVPPVRSSAEVMEELFGKLSGKQNADFPVISAMSVNESGSEPEAPSTAGHAADRITGRGIIKVLVVIALLSVTGFLGSLILRKQN | failed
MADSAELKQMVMSLRVSELQVLLGYAGRNKHGRKHELLTKALHLLKAGCSPAVQMKIKELYRRRF | not failed
IQLIVNGQSQLVPSPDSGTDSGTTNDARLNIRQLLEHMGLQGKRIAVERNGEIVPRSQFDQPMLASGDKLEIVVAVGGG | failed
MNQCRLRSLARIRRSLTLGLRGTDQHVLARQALRTIQTTSQRRGVHDLDSFANGCSAAYIEGLYNKWKRNPSSVDESWNELFSSNDWSSPKRSPLQVSHSRKYRRPPVERIAVKARSGERTASGGASAAPAAPPSDWKNIDDHHVIQAIIRAYQSRGHLAADLDPLGIVGPKKRTSVDGTQRHAAREVLRQHFSYIFNDLNTVFKLPSSTMIGGDQEFLSLKEILDRLERIYCGHIGVEYMQITSLTKTNWLRDRFEKPGGLDLTKEEKKLILERLTRSTGFENFLAKKFSSEKRFGLEGCDIMIPAIKEVVDRATDHGVESILIGMAHRGRLNVLANICRKPISDILSQFHGLQATDSGSGDVKYHLGVFQERLNRQTNRMVRITVVANPSHLEHVNPVLLGKARAEMFQRGDTCGSTVMPIIIHGDASFSGQGVVYESMHLSDLPNYTTYGTIHIVSNNQVGFTTDPRFSRSSRYCTDVAKVVNAPILHVNADDPEACIQCARIAIDYRTRFKKDVVIDIVGYRRNGHNEADEPMFTQPLMYQRIKKLKPCLQLYADKLIKEGVVTDSEFKAMVSSYEKICEDAWAKSKTIKTIKYSSWIDSPWPGFFEGRDRLKLCPTGISTDTLKTIGNMFSTPPPPEHKFETHKGILRILAQRTQMVQDKVADWSLGEAFAFGSLLKEGIHVRLSGQDVERGTFSHRHHVLHHQSEDKVVYNSLDHLYPDQAPYSVSNSSLSECAVLGFEHGYSMASPNALVMWEGQFGDFCNTAQCIIDTFIASGETKWVRQSGVVMLLPHSMEGMGPEHSSGRIERFLQMSDDDPDVYPDTCDADFVARQLMNVNWIVTNLSTPANLFHCLRRQVKMGFRKPLINFSPKSLLRHPLARSPFKDFNECSCFQRIIPDKGPAGKQPDCVQKLVFCSGKVYYDLVKERDDHEQVETVALVRVEQLCPFPYDLISQQLELYPKAELLWAQEEHKNMGAWSYVQPRFDTALLKNENESRCVSYHGRPPSASPATGNKVQHYNEYKALITSIFGELTPENKKRIEDRIKKQQAKAKADAQSKPSTKPPAAPPKGGSSPPPGPAPRKPLISLPSRPPRGGKQRSGSAPAPNLVDEDSAARNREPDASAYDGASPSAWKRSGSAPAPSVVPRASASRSPSRKSPSPSHDGISPSTRQESLSKKKSGSAPAPTPTSRGPFRTAPSNTEFIKRRPAKDYGSRNETQSTPGESELDPTKPQP | failed
MAIVLLVLHVCTGLRGSPVSGRVRMAVDSGIYLAPCSNNDAQEHLKRTVINGVDRDDYGQYTNVGFGDSVSIWGVKGGNESHWQDIDAGDYLFFYTGDETYSQVAEVLATDQNEGLAEHLWPGFEDTWEFIIYLNEPIPVNIDSNEIADYAGYKQNYILGFQSLRGSAVDEINDEYGSIEGYINANRTDGNHIQTSGGSQDPDEGDDSVVDEVLDEADRDEEAYANIARQLEEVGQVVFYGPPGTGKTYNAQQFARWWLHNLQSEPRESQVRSVTFHPSYTYEDFIEGLTANATENSVSYDIKPGKFKAICEDARVAYQETGPNEEPPRYVLLIDEINRGNLAQIFGETITLLEEDKRGTLHVDLAHSGGSFTIPPNLYVIGTMNTADRSVALVDAALRRRFRFIDFPPDYGVARSRFGFDTEYDLTSAARGERSDLEQLQALSIQAVEQLNETIIELPDLGKGKQIGHSYLLVDPDDEQALVDAWRYEILPLLEEYFYGQLSRIRQELFNQNGDSLVDWEREQIKDFDPETLRESLQAIVNAGLEHHHHHH | failed
MVRADEMMDICMLAGEIMLINGAETYRVEETLERMAKAGQFRNVHSFVTTTGIFLSFEEEGAGDVMQMIRVDDRMQDLNKVTLVNQVSREFVNGEIDAAEALTKLQNIAKQPMNYSPLLLHTASGVAGGAFSYLFGGNLFDTLPAFIAGFVASMAVVHLQSYLKVRFFAEFMAAFTGGAVAILLVLIGLGENVDQVIIGTLMPLVPGIPLTNAVRDLISGDLLAGVTRGAECFVTSLSIATGIALAIALLS | failed
MDREALDRKRTWVTQGPIVKVILALATPIVAARLLAATQESVDAIFLGRVSTEDLAAPAAASPLLWLFAGLGIGINTTLSALVSQAIGARDYASAQRYASKLLGATLMLGAASALAIILTAETVFILQGFQGRSLEVALAYTLVEAVGMPFMLALFYFNAVMAASGDTRTPFKVSALSSILNVILDPILIFGLILLPPLGAVGAAVATVLARAAAVSIAFYLLLRGAPGFRVKPSMPDRQLIGHILRIGGPVSLQRLVVSMGFLVMMGIVARLGAPVVAAYNVSLVIIHIVQSATFGFNIATATVVGQNLGASNISRAVRAAYTGVALVFGLLSIGAVAIVGGRSMLVSLFTSIEEVQFYAERMISIVALGMPFLGAFFTAMGVARGSGRTAFISALGIARLWLLRIPAAYTLVYIYSLGDMGVWLAMTLSNIIAGTLAIAWVAGRTWAKPIVKRVPPEPLGEKPPAIPEPAINR | failed
MLNIEIYEEAMCCSTGVCGPEPDETLIKTNQINEYLKQNQIEVQRYNMNNNPNEFIQNKEVIRLIQEKGDEVLPITFIEGNIAKTGAYITQEEADEIITVNQMRNGGCCGGDGCC | not failed
MKFQLYIQPKLDILQGNIVEYEILLRDDSEVPRFPLSELEAVLADEELYLTFCEWFSDAFFDVLKKYPNDRFAINIAPQQLFYMETLHMLDKLRSESHRITIEMTEDIFDVPAHKRHLNADDKDAFILNKIKIIHGLGYHVAVDDVGCGLNSLERVLSYLPYIIELKFSLIHFNNIDLEDLLLFIKAWANFAHKNNLDFVVEGIETKETMAILESHGVSIFQGYLVNKPFPV | failed
NAEKVALAKKVADESAVLLENRNDILPLDLNKYKSVAVVGPNSNQAVLGDYAWTMGDTKEAVSLLQGLQESAGDKIMIRHAEGCDWWSQDKSHIAEAVEVVRNSDIAVVAVGTRSTYLGRSPKYSTAGEGFDLSSLELPGVQEELLKEIKKTGKPMIVVLIAGKPLAMPWVKENADALLVQWYAGEQQGCTLADILLGKVNPSGKLNVSFPRSTGNTPCFYNHFVTDREEPFDQPGTPEEPKGHYIFDKPEPLWNFGHGKSYTTF | not failed
MFTPGNVLSWATFFPVIGSALIVVLLAAKFFLRLDKKLVDDGSRWIALVTSALSFAAAIAAWRMYDPSATGVQLVQHFTWIRAFNIEFYFGVDGISISMVLLSGLISFIATIASMPWWSGKKDAEMAGMVDDGHEDPHHPKHFSVRMVPGYMAMLLLLQTGMMGTFVALDMFLFYVFWEIMLLPMYFLIGIWGGPRKEYAAIKFFLYTLAGSVLMLLAIIGIYYNSAPAQLADGSWSSGHTFNLIELAKQGAAGQFRNAAPILGFSFAKIVFIGLFIGFAIKIPMFPFHTWLPDAHVEAPTPISVILAGVLLKMGIYGILRFNYGILPDATAWAAGAIAVFGVINIIYAAFVCLAQKDLKKLIAYSSVSHMGFSLLGMAAMTPQGISGAVLNLFTHGIISPMLFLIVGVIYDRAHHREIEKFGGLAQELPEYSAIMGLAFFASLGLPGLAGFISEFTVFSGAFPVFTTYTIISATSVVLTAAYYLWAIHRMFLGKLNPVYKGYPDLNWRERMSLYPLAVICIYLGFYPQAILGVINPALHALIQNIKPL | failed
MKRLSTLCLLAAGFFIPGQAHQARPTVLDSVYAPLKVATPPSDAYIGLSLLDNGEIRHYNYGEQAVAGTVYLSSTDHGLTWKRVNRPKEMPFADCQSPVSKEYIRLVDMGAMGVYCIRTSGGLTGGRTLTKVADRNSIMIKPPVFIRNGKRIVVAAHGGVTPKGCYTYFSDDDGLTWKCSNTVTSPDHQGGGFHKGIRWNHGAVEPTVVELKDGTLWMLMRTSQDFHYQAFSKDGGQTWGESEPSPFYGTITMPTLGRLADGRLLLFWCNTTPLPEKEGTDGVWDDVFTNRDVTHVAVSDDDGKTWKGFRELYMDPMRNDIDYAVHGGGIDRGVHQAQFVEVAPGKVLASIGQHPLHRAMMMFDVNWLYEKSRFNDFTDSLSQWSTFNYMNGIKGHCAYNRIQGCMLEPHPRKEGRQVLHLTYRPDASLVADTRGAVWNFPAMKKGTFTVSLRIPEGSHSVSLLLNDRWMNPSDTVARYQSMYELPLTRKQLGVKDDRWHEVSLEWDLLQKRPQARVWVDGRLRPLRLPLKNKSQNGISYVHFIAPPAEANPGVYLEWVRAEADGAI | failed
DPSPQTIYKWIKDNISPKLHVDKGFVNILMTSFLQYISSEVNPPSDETDSSSAPS | failed
MIEQPYPSVADTDAAPPTAQGKIDQYFQISARGSTQRREVVAGITTFMAMVYAVFVVPGMLGKAGFDTSAVFVAVCLTTAFGSLLMGLWAKLPIAIGCAISLTAFMAFGLVLGQHLSPAVALGAVFLMGVVFTAISVTGVRTWILRNLPAGVAHGAGIGIGLFLLLIASNEVGLVIKNPGPGLPVSLGNITAFPVMMSILGLAAIFGLERRRVPGGILLVIVAISALGLVFDPSVKFTGIFALPTLSAPGHTSLIGAMDIRGALSAAVLPSVLALVMTAVFDATGTIRAVAGQANQLDATGRIHNGGRALTADSVSSIFSAFFGGAPAAAYIESTVGVAAGARTGLAAVTVGALFLAVMFFSPLAGLVPSYATAPALMYVGLLMLSSVSRLHMDDLVDALSGLVCAVFIVLTCNIVTGIMLGFCTLVIGRIVSGEWRKLNIGTVAIAVALAAFYAGGWAI | failed
